Consider 2 molecules from patent publication US20180371066A1.

Numbering of substitutions follows the chain as printed. Numbers in names are those of the source.

For one assay, the target named is T1, PEP_2875803.
T1 sequence (peptide): HAGTYGLGDAADQGG
Nature of the assay: peptide array of 15-mers of human tau probed with the antibody; label LIN.AA (double alanine).

For the next assay, the target named is T2, PEP_2875829.
T2 sequence (peptide): GGYTMHQDQAADTDA
The description is as above.

For the next assay, the target named is T3, PEP_2875807.
T3 sequence (peptide): GTYGLGDRKAAGGYT
The description is as above.

The target of the next assay is T4, PEP_2875813.
T4 sequence (peptide): GLGDRKDQGAATMHQ
The description is as above.

Another assay deals with T5, PEP_2875801.
T5 sequence (peptide): DHAGTYGLGAAKDQG
Described as above.

Another assay concerns the target T6, PEP_2875815.
T6 sequence (peptide): LGDRKDQGGAAMHQD
The assay is described as above.

Another assay deals with T7, PEP_2875805.
T7 sequence (peptide): AGTYGLGDRAAQGGY
Described as above.

Another assay addresses T8, PEP_2875830.
T8 sequence (peptide): GYTMHQDQEGDTDAG
The experiment in a line: peptide array of 15-mers of human tau probed with the antibody; label LIN.

In the next assay the target is T9, PEP_2875800.
T9 sequence (peptide): DHAGTYGLGDRKDQG
The description is as above.

A further assay concerns the target T10, PEP_2875802.
T10 sequence (peptide): HAGTYGLGDRKDQGG
Described as above.

The next assay addresses T11, PEP_2875828.
T11 sequence (peptide): GGYTMHQDQEGDTDA
Described as above.

B1: murine anti-tau antibody HJ8.5 (antibody, V domains shown)
VH: EVKVEESGGGLVQPGGSMKLSCVVSGFTFSNYWVNWVRQSPEKGLEWVAQIRLKSDNYATHYEESVKGRFTISRDDSKSSVYLQMNNLRAEDSGIYYCTNWEDYWGQGTTLTVSS
VL: DIVLTQSPASLAVSLGQRATISCRASQSVSTSRYSYIHWYQQKPGQPPKLLIKYASNLESGVPARFSGSGSGTDFTLNIHPLEEEDAATYYCHHSWEIPLTFGAGTKLELK
On to B1, for which the Binding Signal with PEP_2875803 was 51; in the assay with PEP_2875829 it was 106; with PEP_2875807, 110; in the assay with PEP_2875813, 80; with PEP_2875801 it was 52; in the assay with PEP_2875815, 69. The Binding Signal with PEP_2875805 came to 58; in the assay with PEP_2875830 it was 77; with PEP_2875800, 61; in the assay with PEP_2875802, 63; with PEP_2875828 it was 109.

B2: VH1/VK2 humanized anti-tau antibody (C2N-8E12) (antibody, human IgG4 S228P, kappa, V domains shown)
VH: B1 VH with E5V, S40A, E42G, L111V
VL: DIVLTQSPDSLAVSLGERATISCRASQSVSTSRYSYIHWYQQKPGQPPKLLIKYASNLESGVPSRFSGSGSGTDFTLNIHPLEPEDFATYYCHHSWEIPLTFGQGTKLEIKR
For the molecule B2, the Binding Signal came to 65 in the assay with PEP_2875803; 118 in the assay with PEP_2875829; 114 in the assay with PEP_2875807; 65 with PEP_2875813; 90 with PEP_2875801; 99 in the assay with PEP_2875815. The Binding Signal stood at 76 in the assay with PEP_2875805; 97 with PEP_2875830; 78 in the assay with PEP_2875800; 65 in the assay with PEP_2875802; 110 with PEP_2875828.
